According to US20200325231A1 (CURATORS OF THE UNIVERSITY OF MISSOURI, published 2020):
Ends that are not written are not given here. * marks the point of attachment. Biotin = O=C1N[C@H]2[C@H](CS[C@H]2CCCCC(=O)*)N1

Biological target: T1, Programmed Cell Death Ligand 1 (PD-L1) (human, UniProt Q9NZQ7 19-290)
T1 construct: whole, on cells; Endogenous PD-L1 on cells or in fixed tissue sections; No recombinant PD-L1 was used; also called CD274
Experiment: IHC on FFPE placenta, biotinylated peptide, streptavidin-HRP/DAB
Description: To detect PD-L1 in FFPE tissues, manual IHC techniques were employed with a biotin-conjugated version of peptide RK-10-Cy5 and compared with Ventana PD-L1 (SP263) Rabbit monoclonal Primary Antibody stained on a Roche Benchmark Ultra autostainer. Seven PD-L1 expressing NSCLC patient tissues were obtained from the MU OneHealth tissue bank and de-identified according to IRB protocols. Paraffin-embedded patient tissue slides were baked overnight, then de-waxed and rehydrated according to standard protocols. Tissue sections were then subjected to antigen retrieval in EDTA at 95° C. for 20 minutes in EDTA […]. The solution is then cooled for an additional 20 minutes on the bench top prior to buffer rinse. Tissues were then incubated with 15 biotinylated peptide for 2 hours in a humid chamber at RT. After 2 hours, slides were washed with buffer and treated with PIERCE™ High Sensitivity Streptavidin-HRP (1:200 dilution) (Sigma) for 30 minutes at RT in a humid chamber. Once this was complete, slides were again washed in buffer then treated with DAB (3,3′-Diaminobenzidine; Sigma) for 10 minutes. Slides were again washed in buffer, then dehydrated using graded alcohol and xylene and counterstained with hematoxylin. Slides were then imaged using bright-field microscopy on a Leica DM5500. […]

T1 sequence (Q9NZQ7 19-290): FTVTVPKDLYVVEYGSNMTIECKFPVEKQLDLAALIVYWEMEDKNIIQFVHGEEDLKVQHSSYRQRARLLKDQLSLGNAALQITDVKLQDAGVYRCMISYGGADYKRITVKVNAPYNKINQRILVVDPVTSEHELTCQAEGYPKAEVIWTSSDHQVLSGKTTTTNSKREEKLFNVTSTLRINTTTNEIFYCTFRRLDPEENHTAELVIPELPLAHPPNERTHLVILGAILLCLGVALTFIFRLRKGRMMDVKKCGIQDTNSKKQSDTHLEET

B1: RK-11-Biotin (biotinylated mock peptide) (peptide)
peptide: Biotin-GSGSGSFVLNWYRMSPSNQTDKLAA
notes: also called Mock peptide RK-11-Biotin
B1: binds.
